{"source": "paper PMC8659191", "about": "“Expressed Soybean Leghemoglobin: Effect on Escherichia coli at Oxidative and Nitrosative Stress” (Molecules, 2021)", "test_system": "CC(C)(C)OO", "experiment": "purified protein", "conditions": "pH 7.4; 25.0 °C", "data": [{"substance": "Lba (soybean leghemoglobin a, recombinant, ferric metLb) (Glycine max)", "values": [{"measurement": "Km", "result": "5.4 ± 0.05", "unit": "mM"}]}]}
